# Results as given in article PMC9734383 (2022).
# Several values for one entry are separate records, joined by “and”; a condition that tells them apart may be missing. Identical values can stand only once.
# B1: PN-SIA28 Fab (Fab, V domains shown)
# VH: QVQLVESGGGVVQPGRSLRLSCAASGFPFSSYGMHWVRQAPGKGLEWVAGVSYDGSYKYYADSVKGRFTISRDSSKSTLYLQMNSLRPEDTAVYYCARPSAIFGIYIILNGLDVWGQGTTVTVSS
# VL: EIVLTQSPSSVSASVGDRVTITCRATQGISSWLAWYQQKPGKPPKLLIFGASSLQSGVPSRFSGSGSGTDFTLTISSLQPEDFATYFCQQAHSFPLTFGGGTKVEIK
# Legend:
# Assay in all cases: BLI
# [1] = biological target: H1-HA (A/swine/Guangdong/104/2013) (influenza A virus …)
# [2] = biological target: H15 HA (recombinant HA of the panel) (influenza A virus (strain  in …))
# [3] = biological target: H4 HA (recombinant HA of the panel) (influenza A virus (strain  in …))
# [4] = biological target: H3 HA (recombinant HA of the panel) (influenza A virus (strain  in …))
# [5] = biological target: H11 HA (recombinant HA of the panel) (influenza A virus (strain  in …))
# [6] = biological target: H8 HA (recombinant HA of the panel) (influenza A virus (strain  in …))
# [7] = biological target: H18 HA (recombinant HA of the panel) (influenza A virus, bat H18N11 (strain …))
# [8] = biological target: H14 HA (recombinant HA of the panel) (influenza A virus (strain  in …))
# [9] = biological target: H5 HA (recombinant HA of the panel) (influenza A virus (strain  in …))
# [10] = biological target: H1 HA (recombinant HA of the panel) (influenza A virus (strain  in …))
# [11] = biological target: H9 HA (recombinant HA of the panel) (influenza A virus (strain  in …))
# [12] = biological target: H10 HA (recombinant HA of the panel) (influenza A virus (strain  in …))
# [13] = biological target: H17 HA (recombinant HA of the panel) (influenza A virus, bat H17N10 (strain …))
# [14] = biological target: H6 HA (recombinant HA of the panel) (influenza A virus (strain  in …))
# [15] = biological target: H12 HA (recombinant HA of the panel) (influenza A virus (strain  in …))
binder,measurement,setting,value
B1,Kd,[1],0.26 nM
same,Kd,[2],2380 nM
same,Kd,[3],201 nM
same,Kd,[4],144 nM
same,Kd,[5],682 nM
same,Kd,[6],36 nM
same,Kd,[7],40.2 nM
same,Kd,[8],171 nM
same,Kd,[9],6.3 nM and 6.79 nM
same,Kd,[10],0.174 nM
same,Kd,[11],34.3 nM
same,Kd,[12],1160 nM
same,Kd,[13],208 nM
same,Kd,[14],66.8 nM
same,Kd,[15],14900 nM
